Among the data in paper PMC3743950 are stoichiometry N values, retold here.

The target of assay [1] is Δ1-pyrroline-5-carboxylate dehydrogenase from Deinococcus radiodurans (Deinococcus radiodurans). The experiment in a line: SAXS + other: DLS.
Assay [2] concerns the target TtP5CDHK104A (Thermus thermophilus HB27). The experiment in a line: DLS.
For assay [3], the target named is TtP5CDHR111A (Thermus thermophilus HB27). The experiment in a line: SAXS + other: DLS.
For assay [4], the target named is DrP5CDHR102A (Deinococcus radiodurans). As to the kind of experiment: SAXS + other: DLS.
Assay [5] addresses Δ1-pyrroline-5-carboxylate dehydrogenase from Bacillus licheniformis (Bacillus licheniformis). As to the kind of experiment: DLS.
For assay [6], the target named is Δ1-pyrroline-5-carboxylate dehydrogenase from Bacillus halodurans (Bacillus halodurans). As to the kind of experiment: SAXS + other: DLS.
Assay [7] deals with TtP5CDHR100A/K104A/R111A (Thermus thermophilus HB27). The experiment in a line: DLS.
In assay [8] the target is TtP5CDHR153A (Thermus thermophilus HB27). As to the kind of experiment: DLS.
Assay [9] has as its target Δ1-pyrroline-5-carboxylate dehydrogenase from Thermus thermophilus (Thermus thermophilus HB27). The experiment in a line: SAXS + other: DLS.
Assay [10] has as its target TtP5CDHR100A (Thermus thermophilus HB27). The experiment in a line: SAXS + other: DLS.

What is called stoichiometry N is a count of units in the complex or per binding partner.

For the substance “Δ1-pyrroline-5-carboxylate dehydrogenase from Deinococcus radiodurans (enzyme)”, in assay [1], the stoichiometry N came out at 6.
Turning to TtP5CDHK104A (enzyme), the stoichiometry N in assay [2] turned out to be 6.
On to TtP5CDHR111A (enzyme), for which the stoichiometry N in assay [3] was found to be 6.
With DrP5CDHR102A (enzyme), the stoichiometry N in assay [4] worked out at 2.
Take “Δ1-pyrroline-5-carboxylate dehydrogenase from Bacillus licheniformis (enzyme)”: the stoichiometry N in assay [5] is 2.
In the case of “Δ1-pyrroline-5-carboxylate dehydrogenase from Bacillus halodurans (enzyme)”, the stoichiometry N in assay [6] was determined as 2.
As for TtP5CDHR100A/K104A/R111A (enzyme), the stoichiometry N in assay [7] was determined as 2.
With TtP5CDHR153A (enzyme), the stoichiometry N in [8] was 6.
Regarding “Δ1-pyrroline-5-carboxylate dehydrogenase from Thermus thermophilus (enzyme)”, in assay [9], the stoichiometry N turned out to be 6.
As for TtP5CDHR100A (enzyme), the stoichiometry N in assay [10] worked out at 2.
